According to patent publication US20240352075A1, “PACAP1-23 ANALOG GLYCOPEPTIDES AND METHODS FOR PRODUCING AND USING THE SAME” (priority 2021, published 2024):
Primed or numbered codes have the meaning given here. Where no end group is shown, it is not given here. [ ]: non-standard residue; d: D form. Glc″ = glucose, glycoside on Ser; Lac′ = lactose, glycoside on Ser; Nva = CCC[C@H](N)C(=O)O

T1: human VPAC1 (human, UniProt P32241 31-457)
T1 sequence (looked up): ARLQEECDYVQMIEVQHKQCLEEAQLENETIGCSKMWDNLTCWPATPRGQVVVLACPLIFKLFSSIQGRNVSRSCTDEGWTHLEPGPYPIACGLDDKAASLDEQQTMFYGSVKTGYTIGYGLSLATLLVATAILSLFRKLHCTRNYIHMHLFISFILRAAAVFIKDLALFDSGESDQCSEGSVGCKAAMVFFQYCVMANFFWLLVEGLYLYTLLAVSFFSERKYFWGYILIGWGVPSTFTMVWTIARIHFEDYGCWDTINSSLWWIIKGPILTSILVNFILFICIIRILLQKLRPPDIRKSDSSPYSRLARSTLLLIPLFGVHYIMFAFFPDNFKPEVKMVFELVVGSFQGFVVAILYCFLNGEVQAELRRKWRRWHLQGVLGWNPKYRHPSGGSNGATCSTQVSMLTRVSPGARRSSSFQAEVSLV

T2: human VPAC2 (human, UniProt P41587 24-438)
T2 sequence (looked up): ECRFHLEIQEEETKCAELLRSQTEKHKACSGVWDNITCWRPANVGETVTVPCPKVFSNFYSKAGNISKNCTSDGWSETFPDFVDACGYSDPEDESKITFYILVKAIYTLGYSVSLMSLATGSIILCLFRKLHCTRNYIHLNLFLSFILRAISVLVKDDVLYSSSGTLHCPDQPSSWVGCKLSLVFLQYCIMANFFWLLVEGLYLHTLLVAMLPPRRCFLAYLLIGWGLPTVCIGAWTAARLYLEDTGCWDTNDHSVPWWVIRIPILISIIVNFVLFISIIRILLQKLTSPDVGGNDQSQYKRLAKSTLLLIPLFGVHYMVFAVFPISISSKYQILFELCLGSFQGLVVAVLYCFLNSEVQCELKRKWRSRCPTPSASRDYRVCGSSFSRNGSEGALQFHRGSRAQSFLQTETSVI

T3: human PAC1 (human, UniProt P41586 21-468)
T3 sequence (looked up): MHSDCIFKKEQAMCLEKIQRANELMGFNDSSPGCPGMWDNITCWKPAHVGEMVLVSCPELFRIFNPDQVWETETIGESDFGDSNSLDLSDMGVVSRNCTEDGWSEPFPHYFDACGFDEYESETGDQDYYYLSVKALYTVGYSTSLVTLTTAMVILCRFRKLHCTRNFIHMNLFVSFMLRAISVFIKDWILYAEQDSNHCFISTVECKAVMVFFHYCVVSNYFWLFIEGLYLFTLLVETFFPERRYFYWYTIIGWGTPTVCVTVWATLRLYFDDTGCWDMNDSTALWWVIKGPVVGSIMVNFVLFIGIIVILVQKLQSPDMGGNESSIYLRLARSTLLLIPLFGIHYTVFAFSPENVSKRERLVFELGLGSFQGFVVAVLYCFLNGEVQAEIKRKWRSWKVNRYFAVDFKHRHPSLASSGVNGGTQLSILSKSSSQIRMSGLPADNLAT


What was measured:
Assay in all cases: cell-based or functional assay
human VPAC1 [1] = biological target: T1, human VPAC1
human VPAC2 [2] = biological target: T2, human VPAC2
human VPAC1 [3] = biological target: T1, human VPAC1; remark: listed apart in the source
human PAC1 = biological target: T3, human PAC1
human VPAC2 [4] = biological target: T2, human VPAC2; remark: listed apart in the source
human VPAC1 [5] = biological target: T1, human VPAC1; remark: listed apart in the source
human VPAC2 [6] = biological target: T2, human VPAC2; remark: listed apart in the source

Row | Binder | selectivity for PAC1 versus VPAC1 (cAMP potency) (human VPAC1 [1]) [fold] | selectivity for PAC1 versus VPAC2 (cAMP potency) (human VPAC2 [2]) [fold] | cAMP stimulation EC50 (human VPAC1 [3]) [nM] | cAMP stimulation EC50 (human PAC1) [nM] | cAMP stimulation Emax (human VPAC1 [3]) [%] | cAMP stimulation EC50 (human VPAC2 [4]) [nM] | cAMP stimulation Emax (human VPAC2 [4]) [%] | cAMP stimulation Emax (human PAC1) [%] | cAMP stimulation EC50 (Table 1, differs from Table 3) (human VPAC1 [5]) [nM] | cAMP stimulation Emax (Table 1, differs from Table 3) (human VPAC1 [5]) [%] | cAMP stimulation Emax (Table 1, differs from Table 3) (human VPAC2 [6]) [%]
1 | HSDGIFTDSYSRYRKQ[Nva]AVKKYLS(Glc″)-NH2 [CRA-DV-3023] | ~60 | ~900 | 37 | 0.64 | – | – | – | – | – | – | –
2 | HSDAIFTDSYSRYRKQ[Nva]AVKKYLS(Lac′)-NH2 [CRA-TG-3026] | – | – | 38 | 7 | 95 | 321 | 115 | 181 | 35 | 124 | 190
